Experimental data reported in patent US20060134087A1, “ITI-D1 Kunitz domain mutants as hNE inhibitors” (Dyax Corp., priority 1988, published 2006).

Columns and labels:
hNE [1] = molecular target: T1, hNE (Homo sapiens, UniProt P08246); assay: hNE inhibition, hydrolysis of fluorogenic substrate (Ki; standard hNE-inhibition assay); format: biochemical; parameters: concentration or dose not given beside the values
T1 sequence (P08246 30-267): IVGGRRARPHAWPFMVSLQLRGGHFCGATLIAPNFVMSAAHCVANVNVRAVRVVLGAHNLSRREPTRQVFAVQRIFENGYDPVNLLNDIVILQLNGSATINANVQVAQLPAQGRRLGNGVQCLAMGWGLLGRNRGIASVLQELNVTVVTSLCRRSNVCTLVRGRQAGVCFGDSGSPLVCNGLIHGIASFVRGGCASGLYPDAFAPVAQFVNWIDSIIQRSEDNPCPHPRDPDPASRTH
Experimental: Inhibition constants for the proteins reacting with hNE (Ki) were determined using RT measurements of hydrolysis of a fluorogenic substrate (N-methoxysuccinyl-Ala-Ala-Pro-Val-7-amino-4-methylcoumarin, Sigma M-9771) by hNE. For these measurements, aliquots of the appropriately diluted inhibitor stocks were added to 2 ml solutions of 0.847 nM hNE in reaction buffer (50 mM Tris-Cl, pH=8.0, 150 mM NaCl, 1 mM CaCl2, 0.25% Triton-X-100) in plastic fluorescence cuvettes. The reactions were incubated at RT for 30 minutes. At the end of the incubation period, the fluorogenic substrate was added at a concentration of 25 μM and the time course for increase in fluorescence at 470 nm (excitation at 380 nm) due to enzymatic substrate cleavage was recorded using a spectrofluorimeter (Perkin-Elmer 650-15) and strip chart recorder. […] Ki is related to Kapparent by Ki=Kapparent×(1/(1+(S0/Km))). The correction is small compared to the possible errors in Kapparent. Rates of enzymatic substrate cleavage were determined from the linear slopes of the recorded increases in fluorescence. The percent residual activity of hNE in the presence of the inhibitor was calculated as the percentage of the rate of fluorescence increase observed in the presence of the inhibitor to that observed when no added inhibitor was present.
We recorded data used to determine Ki for EPI-HNE-2 and EPI-HNE-3 reacting with hNE. Data obtained as described above are recorded as percent residual activity plotted as a function of added inhibitor. Values for Ki and for active inhibitor concentration in the stock are obtained from a least-squares fit program.

hNE [2] = molecular target: T1, hNE; assay: Kinetic on-rate of inhibitors reacting with hNE (progressive inhibition); format: biochemical
hNE [3] = molecular target: T1, hNE; assay: pH stability, residual hNE inhibitory activity; format: physicochemical; conditions: 37° C., 18 hours; for Percent Residual hNE Inhibitory Activity: 1 μM protein
hNE [4] = molecular target: T1, hNE; assay: Resistance to oxidative inactivation by Chloramine-T, residual hNE-inhibition activity; format: physicochemical; conditions: for Percent Residual hNE-Inhibitory Activity: 20 minutes at RT
Summary of the method: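 Inhibitors were exposed to Chloramine-T at set molar ratios for 20 min at RT, then quenched with methionine (4 mM final) for 10 min and diluted. Residual hNE-inhibitory activity was measured in the standard hNE-inhibition assay and expressed as a percentage of the no-oxidant control.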

EPI-HNE-3: ITI-D2(3-58) with R15I, I18F, Q19P, L20R; SEQ ID NO 026 (AACNLPIVRGPCIAFFPRWAFDAVKGKCVLFPYGGCQGNGNKFYSEKECREYCGVP; Epi-HNE-3)
Percent residual hNE activity (hNE [1]; 10. μl of EPI-HNE-3 solution added): 81.6%
Percent residual hNE activity (hNE [1]; 20. μl of EPI-HNE-3 solution added): 66.9%
Percent residual hNE activity (hNE [1]; 30. μl of EPI-HNE-3 solution added): 53.4%
Percent residual hNE activity (hNE [1]; 40. μl of EPI-HNE-3 solution added): 38.0%
Percent residual hNE activity (hNE [1]; 50. μl of EPI-HNE-3 solution added): 27.6%
Percent residual hNE activity (hNE [1]; 55. μl of EPI-HNE-3 solution added): 21.5%
Percent residual hNE activity (hNE [1]; 60. μl of EPI-HNE-3 solution added): 13.0%
Percent residual hNE activity (hNE [1]; 65. μl of EPI-HNE-3 solution added): 11.0%
Percent residual hNE activity (hNE [1]; 70. μl of EPI-HNE-3 solution added): 7.9%
Percent residual hNE activity (hNE [1]; 75. μl of EPI-HNE-3 solution added): 3.8%
Percent residual hNE activity (hNE [1]; 80. μl of EPI-HNE-3 solution added): 3.3%
Percent residual hNE activity (hNE [1]; 85. μl of EPI-HNE-3 solution added): 2.1%
Percent residual hNE activity (hNE [1]; 90. μl of EPI-HNE-3 solution added): 1.8%
Percent residual hNE activity (hNE [1]; 100. μl of EPI-HNE-3 solution added): 1.6%
Percent residual hNE activity (hNE [1]; 110. μl of EPI-HNE-3 solution added): 0.8%
Percent residual hNE activity (hNE [1]; 120. μl of EPI-HNE-3 solution added): 0.7%
Percent residual hNE activity (hNE [1]; 160. μl of EPI-HNE-3 solution added): 0.6%
Percent residual hNE activity (hNE [1]; 200. μl of EPI-HNE-3 solution added): 0.2%
kon (hNE [2]; [hNE] = 8.47 × 10^−10 molar): 8.0 10^6/M/s
koff (hNE [2]; calculated from koff = KD × kon): 50. 10^−6/s
pH stability (hNE [3]; pH 1 to pH 10, 1 μM): stable when incubated at low pH, but showed some loss of activity at high pH
Percent Residual hNE Inhibitory Activity (hNE [3]; Incubation pH 1.0): 97%
Percent Residual hNE Inhibitory Activity (hNE [3]; Incubation pH 2.0): 97%
Percent Residual hNE Inhibitory Activity (hNE [3]; Incubation pH 3.0): 100%
Percent Residual hNE Inhibitory Activity (hNE [3]; Incubation pH 4.0): 102%
Percent Residual hNE Inhibitory Activity (hNE [3]; Incubation pH 5.5): 99%
Percent Residual hNE Inhibitory Activity (hNE [3]; Incubation pH 6.0): 103%
Percent Residual hNE Inhibitory Activity (hNE [3]; Incubation pH 6.5): 99%
Percent Residual hNE Inhibitory Activity (hNE [3]; Incubation pH 7.0): 103%
Percent Residual hNE Inhibitory Activity (hNE [3]; Incubation pH 7.5): 87%
Percent Residual hNE Inhibitory Activity (hNE [3]; Incubation pH 8.0): 84%
Percent Residual hNE Inhibitory Activity (hNE [3]; Incubation pH 8.5): 68%
Percent Residual hNE Inhibitory Activity (hNE [3]; Incubation pH 9.4): 44%
Percent Residual hNE Inhibitory Activity (hNE [3]; Incubation pH 10.0): 27%
Percent Residual hNE-Inhibitory Activity (hNE [4]; Molar Ratio CHL-T:Inhibitor 0): 100%
Percent Residual hNE-Inhibitory Activity (hNE [4]; Molar Ratio CHL-T:Inhibitor 1.0): 97%
Percent Residual hNE-Inhibitory Activity (hNE [4]; Molar Ratio CHL-T:Inhibitor 3.0): 97%
Percent Residual hNE-Inhibitory Activity (hNE [4]; Molar Ratio CHL-T:Inhibitor 5.0): 94%
Percent Residual hNE-Inhibitory Activity (hNE [4]; Molar Ratio CHL-T:Inhibitor 10.): 97%
Percent Residual hNE-Inhibitory Activity (hNE [4]; Molar Ratio CHL-T:Inhibitor 30.): 100%
Percent Residual hNE-Inhibitory Activity (hNE [4]; Molar Ratio CHL-T:Inhibitor 50.): 94%
Percent Residual hNE-Inhibitory Activity (hNE [4]; Molar Ratio CHL-T:Inhibitor .50): 97%
hNE-inhibition activity after exposure to Chloramine-T (hNE [4]; all molar ratios tested (up to 50:1 for EPI-HNE-3 and EPI-HNE-4)): retain essentially complete hNE-inhibition activity
